Measured values from IntAct's records for PubMed 16778768.

B1: High osmolarity signaling protein SHO1 (Saccharomyces cerevisiae), P40073 (parent)
chain: MSISSKIRPTPRKPSRMATDHSFKMKKFYADPFAISSISLAIVSWVIAIGGSISSASTNESFPRFTWWGIVYQFLIICSLMLFYCFDLVDHYRIFITTSIAVAFVYNTNSATNLVYADGPKKAAASAGVILLSIINLIWILYYGGDNASPTNRWIDSFSIKGIRPSPLENSLHRARRRGNRNTTPYQNNVYNDAIRDSGYATQFDGYPQQQPSHTNYVSSTALAGFENTQPNTSEAVNLHLNTLQQRINSASNAKETNDNSNNQTNTNIGNTFDTDFSNGNTETTMGDTLGLYSDIGDDNFIYKAKALYPYDADDDDAYEISFEQNEILQVSDIEGRWWKARRANGETGIIPSNYVQLIDGPEEMHR
partner: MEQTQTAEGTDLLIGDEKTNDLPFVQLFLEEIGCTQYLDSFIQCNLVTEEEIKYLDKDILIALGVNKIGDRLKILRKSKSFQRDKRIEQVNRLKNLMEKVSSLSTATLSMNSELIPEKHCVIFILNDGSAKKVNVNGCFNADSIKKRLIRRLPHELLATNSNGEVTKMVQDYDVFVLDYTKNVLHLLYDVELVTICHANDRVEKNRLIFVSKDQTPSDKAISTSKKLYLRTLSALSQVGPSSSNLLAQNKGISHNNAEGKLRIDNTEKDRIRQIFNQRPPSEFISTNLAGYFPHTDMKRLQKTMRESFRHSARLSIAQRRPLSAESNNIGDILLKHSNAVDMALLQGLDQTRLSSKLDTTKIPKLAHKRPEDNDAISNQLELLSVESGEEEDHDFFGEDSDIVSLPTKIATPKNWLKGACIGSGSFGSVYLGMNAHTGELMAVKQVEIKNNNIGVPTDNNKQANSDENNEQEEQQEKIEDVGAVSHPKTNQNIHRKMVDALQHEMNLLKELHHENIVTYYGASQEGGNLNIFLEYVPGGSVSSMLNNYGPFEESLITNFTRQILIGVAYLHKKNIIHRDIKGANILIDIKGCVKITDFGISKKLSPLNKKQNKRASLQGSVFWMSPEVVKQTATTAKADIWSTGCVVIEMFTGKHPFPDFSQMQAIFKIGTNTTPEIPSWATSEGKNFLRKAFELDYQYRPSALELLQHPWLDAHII
B2: High osmolarity signaling protein SHO1 (Saccharomyces cerevisiae), P40073 (parent)
chain: B1 chain
partner: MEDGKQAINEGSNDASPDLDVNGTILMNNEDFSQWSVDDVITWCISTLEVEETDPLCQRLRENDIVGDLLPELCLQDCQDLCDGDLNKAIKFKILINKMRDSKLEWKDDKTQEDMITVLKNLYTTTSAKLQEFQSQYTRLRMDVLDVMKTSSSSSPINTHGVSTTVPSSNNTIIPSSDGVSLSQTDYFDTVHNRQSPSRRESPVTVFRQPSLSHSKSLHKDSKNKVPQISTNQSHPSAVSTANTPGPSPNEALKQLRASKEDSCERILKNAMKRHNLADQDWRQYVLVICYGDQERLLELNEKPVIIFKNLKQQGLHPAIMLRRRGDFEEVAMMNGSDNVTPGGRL

Variants of: B1
Details: with ste11_yeast STE11, P23561

Variant | effect of a mutation on the interaction
G346S | increasing interaction
R342G | increasing interaction

Variants of: B2
Details: with ste50_yeast STE50, P25344

Variant | effect of a mutation on the interaction
R342G | increasing interaction
G346S | increasing interaction
